Source: publication PMC4479312

target: integrin α4β7 (human α4 and β7 subunits co-expressed on 293T cells) (human) (UniProt P13612)
Sequence of UniProt P13612 (P13612 34-1032, chain 1 of 2): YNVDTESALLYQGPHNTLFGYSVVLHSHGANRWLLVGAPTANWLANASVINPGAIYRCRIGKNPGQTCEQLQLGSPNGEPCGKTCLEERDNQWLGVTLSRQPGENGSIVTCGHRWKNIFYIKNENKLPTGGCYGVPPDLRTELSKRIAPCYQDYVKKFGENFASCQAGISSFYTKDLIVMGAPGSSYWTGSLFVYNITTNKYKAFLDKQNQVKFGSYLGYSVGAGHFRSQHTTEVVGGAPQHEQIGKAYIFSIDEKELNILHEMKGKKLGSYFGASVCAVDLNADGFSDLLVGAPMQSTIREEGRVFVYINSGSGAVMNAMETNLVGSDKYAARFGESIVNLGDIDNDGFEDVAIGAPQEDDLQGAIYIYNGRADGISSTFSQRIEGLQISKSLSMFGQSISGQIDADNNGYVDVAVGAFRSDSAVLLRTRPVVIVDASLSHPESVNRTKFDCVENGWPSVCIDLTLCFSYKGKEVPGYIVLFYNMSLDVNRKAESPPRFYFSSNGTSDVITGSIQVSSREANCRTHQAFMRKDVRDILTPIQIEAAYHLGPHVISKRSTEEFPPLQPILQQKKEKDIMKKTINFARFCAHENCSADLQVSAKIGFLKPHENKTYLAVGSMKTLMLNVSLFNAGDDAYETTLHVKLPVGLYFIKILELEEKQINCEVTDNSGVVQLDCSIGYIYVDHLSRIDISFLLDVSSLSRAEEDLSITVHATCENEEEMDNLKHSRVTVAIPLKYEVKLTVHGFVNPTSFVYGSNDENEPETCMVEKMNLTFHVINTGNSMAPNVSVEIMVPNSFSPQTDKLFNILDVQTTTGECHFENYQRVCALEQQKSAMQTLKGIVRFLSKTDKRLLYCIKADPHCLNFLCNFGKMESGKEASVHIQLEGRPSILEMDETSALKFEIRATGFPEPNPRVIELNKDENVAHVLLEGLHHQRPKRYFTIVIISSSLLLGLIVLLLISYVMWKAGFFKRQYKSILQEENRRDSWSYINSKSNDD
Sequence of UniProt P13612 (P26010 20-798, chain 2 of 2, further chain): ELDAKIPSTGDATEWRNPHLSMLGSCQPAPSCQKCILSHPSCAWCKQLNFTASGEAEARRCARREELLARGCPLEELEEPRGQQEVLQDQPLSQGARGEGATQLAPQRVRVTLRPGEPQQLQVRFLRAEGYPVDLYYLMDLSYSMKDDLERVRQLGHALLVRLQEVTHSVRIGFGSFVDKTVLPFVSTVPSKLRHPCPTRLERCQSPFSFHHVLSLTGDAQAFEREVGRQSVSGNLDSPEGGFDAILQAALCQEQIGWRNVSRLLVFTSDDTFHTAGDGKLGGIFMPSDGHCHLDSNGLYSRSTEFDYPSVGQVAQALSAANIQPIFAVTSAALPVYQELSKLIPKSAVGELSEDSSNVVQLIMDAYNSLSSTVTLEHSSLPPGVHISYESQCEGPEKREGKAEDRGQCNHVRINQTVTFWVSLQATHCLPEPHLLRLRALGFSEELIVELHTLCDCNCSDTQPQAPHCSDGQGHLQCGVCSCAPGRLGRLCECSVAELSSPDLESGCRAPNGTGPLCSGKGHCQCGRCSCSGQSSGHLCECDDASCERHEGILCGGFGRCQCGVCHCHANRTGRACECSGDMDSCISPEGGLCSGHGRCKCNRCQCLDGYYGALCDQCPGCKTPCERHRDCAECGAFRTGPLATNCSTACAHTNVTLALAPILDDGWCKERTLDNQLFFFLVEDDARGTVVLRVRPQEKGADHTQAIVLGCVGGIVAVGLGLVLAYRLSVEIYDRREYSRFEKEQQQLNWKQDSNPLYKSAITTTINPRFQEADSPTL

| Substance | α4β7 dependence for replication (Act-1 mAb inhibition of p24 in ATRA-treated CD4+ T cells) |
| --- | --- |
| HIV-1 subtype C CAP200 transmitted/founder (T/F) envelope glycoprotein (SDV motif) on infectious envelope clone virus (natural protein) | > 50% |
| HIV-1 subtype C CAP88 transmitted/founder (T/F) envelope glycoprotein on infectious envelope clone virus (natural protein) | > 50% |
| HIV-1 subtype C CAP206 transmitted/founder (T/F) envelope glycoprotein on infectious envelope clone virus (natural protein) | > 50% |
| HIV-1 subtype C CAP225 transmitted/founder (T/F) envelope glycoprotein (SDI motif) on infectious envelope clone virus (natural protein) | > 50% |
